Test results published in patent US20150118260A1 (GENERAL HOSPITAL, published 2015).

T1: human CD80 on the human CD80-expressing leukemia cell line THP-1 (human, UniProt P33681 35-288)
T1 construct: whole, on cells
T1 sequence (looked up): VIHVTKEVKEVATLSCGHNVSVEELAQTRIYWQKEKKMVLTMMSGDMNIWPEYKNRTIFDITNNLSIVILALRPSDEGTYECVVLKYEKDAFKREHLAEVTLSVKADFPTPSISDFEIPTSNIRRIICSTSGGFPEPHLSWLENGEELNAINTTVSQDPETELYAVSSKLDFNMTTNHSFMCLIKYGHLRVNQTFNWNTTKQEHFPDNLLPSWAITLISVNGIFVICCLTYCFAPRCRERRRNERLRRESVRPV


Key:
[1] = molecular target: T2, porcine CD80 on the porcine CD80-expressing B-cell lymphoma cell line LCL13271-5E4 (porcine); assay: flow cytometry on LCL13271-5E4 cells, MFI against concentration of biotinylated protein, non-linear least-squares fit
T2 construct: whole, on cells; The cell line was picked as CD80-expressing by staining with hamster anti-mouse CD80 mAb 16-10A1; CD86 on these cells is not addressed; also called LC13271-5E4

[2] = molecular target: T1, human CD80 on the human CD80-expressing …; assay: flow cytometry with biotinylated soluble porcine CTLA-4 on THP-1 cells

Binder	Kd [1]	binding result [2]
glycosylated soluble porcine CTLA-4 carrying 6xHis tag in the C-terminus (aa 38-161, 124 aa + 6xHis) (receptor, N-glycosylated completely or partially (Pichia pastoris); labeled with Sulfo-NHS biotin in the direct binding and KD assays, non-biotinylated in the blocking assay, Expressed in Pichia pastoris X33; The entry includes the 6xHis tag; also called pCTLA-4-Gly; pCTLA4-6xHis) MHVAQPAVVLANSRGVASFVCEYGSAGKAAEVRVTVLRRAGSQMTEVCAATYTVEDELTFLDDSTCTGTSTENKVNLTIQGLRAVDTGLYICKVELLYPPPYYVGMGNGTQIYVIDPEPCPDSDHHHHHH	13 nM	no binding
non-N-glycosylated soluble porcine CTLA-4 carrying 6xHis tag (aa 38-161, 124 aa + 6xHis; N76A, N108A) (receptor, labeled with Sulfo-NHS biotin in the direct binding and KD assays, non-biotinylated in the blocking assay, also called pCTLA-4-Non-N-Gly; non-N-glycosylated porcine soluble CTLA-4) MHVAQPAVVLANSRGVASFVCEYGSAGKAAEVRVTVLRRAGSQMTEVCAATYTVEDELTFLDDSTCTGTSTENKVALTIQGLRAVDTGLYICKVELLYPPPYYVGMGAGTQIYVIDPEPCPDSDHHHHHH	13 nM	no binding
